From publication PMC4424056

How the values were obtained:
[1] = biological target: integrin αIIb cytoplasmic tail (αIIb CT, W988-E1008) (human) (UniProt P08514); experiment: SPR
[2] = biological target: integrin αIIb cytoplasmic tail (αIIb CT, W988-E1008) (human) (UniProt P08514)

Sequence of integrin αIIb cytoplasmic tail (αIIb CT, W988-E1008) (human) (P08514 1019-1039): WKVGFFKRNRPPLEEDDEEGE

Kd [1]: 229 µM
inhibition by FLNa-Ig21 of the PAC1 binding of WT αIIbβ3 in CHO cells [2]: 40%
Substance: filamin A immunoglobulin repeat 21 (FLNa-Ig21) (from UniProt P21333 2236-2330) (domain or fragment)
